Measured values published in patent US7244430 (CRUCELL HOLLAND B V, dated 2007).

T1: recombinantly expressed purified soluble WNV E protein (strain 382-99) (West Nile virus strain 382-99, UniProt Q9Q6P4 291-696)
T1 construct: also called recombinant WNV-E protein; truncated E protein; not shown: Myc tag and His tag
T1 sequence: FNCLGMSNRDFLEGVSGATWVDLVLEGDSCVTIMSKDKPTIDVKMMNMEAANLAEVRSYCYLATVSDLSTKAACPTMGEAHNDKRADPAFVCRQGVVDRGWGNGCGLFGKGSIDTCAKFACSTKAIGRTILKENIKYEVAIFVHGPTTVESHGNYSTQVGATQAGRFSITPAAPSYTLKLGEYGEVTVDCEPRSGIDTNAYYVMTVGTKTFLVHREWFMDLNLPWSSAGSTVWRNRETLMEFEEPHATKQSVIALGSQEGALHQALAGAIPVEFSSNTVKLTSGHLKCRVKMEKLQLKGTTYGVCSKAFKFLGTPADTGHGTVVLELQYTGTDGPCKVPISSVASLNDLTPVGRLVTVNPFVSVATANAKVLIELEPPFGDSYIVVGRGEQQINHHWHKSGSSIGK


Columns and labels:
[1] = biological target: T2, West Nile virus strain USA99b (strain 385-99) (West Nile virus strain 385-99 (USA99b)); test: phage ELISA, coated whole inactivated WNV
T2 construct: mature; also called WNV; WN virus

[2] = biological target: T1, recombinantly expressed purified …; test: phage ELISA, coated recombinant soluble WNV E protein
[3] = biological target: T1, recombinantly expressed purified …; test: as above; remark: listed apart in the source
[4] = biological target: T3, WNV-like particles (wild-type VLP, strain 382-99 M and E proteins) (West Nile virus strain 382-99, UniProt Q9Q6P4 291-791; Q9Q6P4 216-290); test: titration of purified IgM on VLPs
T3 construct: also called West Nile virus-like particles; WT

[5] = biological target: T4, mutant WNV-like particles K307E (West Nile virus strain 382-99, UniProt Q9Q6P4 291-791; Q9Q6P4 216-290); test: ELISA on mutant VLP
T4 construct: also called mutant K307E

[6] = biological target: T5, mutant WNV-like particles T332K (West Nile virus strain 382-99, UniProt Q9Q6P4 291-791; Q9Q6P4 216-290); test: ELISA on mutant VLP, normalized to wild-type VLP
T5 construct: also called mutant T332K

[7] = biological target: T6, mutant WNV-like particles A365V (West Nile virus strain 382-99, UniProt Q9Q6P4 291-791; Q9Q6P4 216-290); test: ELISA on mutant VLP, normalized to wild-type VLP
T6 construct: also called mutant A365V

Row | Binder | OD 492 nm [1] | OD 492 nm [2] | also measured
1 | SC04-299 (scFv) scFv: EVQLVETGGGVVQPGRSLRLSCAASGFTFSGYAMHWVRQAPGKGLDWVAVISYDGSEKYSADSVKGRFTISRDNSKNTLYLQMNSLRAEDTAVYYCAKESGGPIWYKYYGVDVWGQGTTVTVSSGTGGSGGTGSGTGGSTSYVLTQPPSLSAAPRQRVTISCSGSSSNIGNYGVNWYQQLPGKAPKLLIYYDDLLPSGVSDRFSGSKSGTSASLAISGLQSEDEGDYYCAAWDDTLSAWVFGGGTKLTVLG | 1.07 OD 492 nm |  | 
2 | SC04-311 (scFv) scFv: EVQLVQSGGGVVQPGRSLRLSCVASGFTFSKDAMHWVRQAPGKGLEWVAVISYDGSDKHYADSVKGRVTISRDNSRKTLYLRMDSLRAEDTALYYCARGYNSGHYFDYWGQGTLITVSSGTGGSGGTGSGTGGSTQSVLTQPPSVSAAPGQKVTISCSGTSSNIGDNYVSWYQHLPGTAPKLLIYDNNKRPSGIPDRFSGSKSGTSATLGVTGLQTGDEADYYCGTWDSSLTAVVFGGGTKLTVLG | 1.04 OD 492 nm | 1.54 OD 492 nm | 
3 | SC04-325 (scFv) scFv: QMQLVQSGAEVKKPGSSVKVSCKASGDTFSSYAISWVRQAPGQGLEWMGGIFGTASYAQKFQGRVTITADESTSTAYMELSSLRSEDTAVYYCARGGMATTPGLDYWGQGTLVTVSSGTGGSGGTGSGTGGSTDIQLTQSPDSLAVSLGERATINCKSSQSVLYSSNNKNYLAWYQQKPGQPPKLLIYWASTRESGVPDRFSGSGSGTDFTLTISSLQAEDVAVYYCQQYYSTPLTFGQGTKVEIKR |  | 1.4 OD 492 nm | 
4 | SC04-353 (scFv) scFv: EVQLVQSGGGVVQPGRSLRLSCAASGFTFSNYAMHWVRQAPGKGLEWVAVISYDGGNKYYADSVKGRFTMSRDNSKNTLYLQMNSLRAEDTAVYYCARDFWSGYSMVDSYYYYMDVWGKGTTVTVSSGTGGSGGTGSGTGGSTETTLTQSPGTLSLSPGERATLSCRASQSVSNTFLAWYQQKPGQAPRLLIYGASSRATGIPDRFSGSGSGTDFTLTISRLEPEDFAAYYCQQYGSSLTFGPGTKVDIKR |  | 0.099 OD 492 nm | binding result [3]: no binding
5 | CRM4374 (antibody, also called IgM form of CR4374) heavy: QITLKESGPTLVKPTQTLTLTCTFSGFSLSTSGVGVGWIRQPPGKALEWLAVIYWNDDKLYRPSLKSRLTITKDTSKNQVVLTMTKMDPVDTATYYCAHRHRYYDISGYYRLFSDAFDIWGQGTMVTVSSASAPTLFPLVSCENSPSDTSSVAVGCLAQDFLPDSITFSWKYKNNSDISSTRGFPSVLRGGKYAATSQVLLPSKDVMQGTDEHVVCKVQHPNGNKEKNVPLPVIAELPPKVSVFVPPRDGFFGNPRKSKLICQATGFSPRQIQVSWLREGKQVGSGVTTDQVQAEAKESGPTTYKVTSTLTIKESDWLSQSMFTCRVDHRGLTFQQNASSMCVPDQDTAIRVFAIPPSFASIFLTKSTKLTCLVTDLTTYDSVTISWTRQNGEAVKTHTNISESHPNATFSAVGEASICEDDWNSGERFTCTVTHTDLPSPLKQTISRPKGVALHRPDVYLLPPAREQLNLRESATITCLVTGFSPADVFVQWMQRGQPLSPEKYVTSAPMPEPQAPGRYFAHSILTVSEEEWNTGETYTCVVAHEALPNRVTERTVDKSTGKPTLYNVSLVMSDTAGTCY light: QSVLTQPPSVSGAPGQRVTISCTGSSSNIGAGYDVHWYQQLPGTAPKLLIYGNSNRPSGVPDRFSGSKSGTSASLAITGLQAEDEADYYCQSYDSSLSGSVFGGGTKLTVLGQPKAAPSVTLFPPSSEELQANKATLVCLISDFYPGAVTVAWKADSSPVKAGVETTTPSKQSNNKYAASSYLSLTPEQWKSHRSYSCQVTHEGSTVEKTVAPTECS |  |  | binding result [4]: binds
6 | SC04-271 (scFv) scFv: EVQLVETGAEVKKPGESLRISCKGSGYTFNNYWIGWVRQMPGKGLEWMGIIYPGDSDTRYSPSVQGHVTISADKSINTAYLQWSSLKASDTAVYYCARRPGYDYGFYYFDYWGQGTLVTVSSGTGGSGGTGSGTGGSTQSALTQPRSVSGSPGQSVTISCTGTSSDVGGYNYVSWYQHHPGKAPKLMIYDVSNRPLGVSNRFSGSKSGNTASLTISGLQAEDEADYYCSSYTSSSTYVFGTGTHLTVLS | 0.984 OD 492 nm | 0.608 OD 492 nm | 
7 | SC04-361 (scFv) scFv: EVQLVQSGAEVKKPGESLKISCKASGFSFSTYWIGWVRQMPGKGLEWMGIIYPADSDTRYSPSFQGQVTISADKSISTAYLQWSSLKASDTAMYYCARLRGPYYDFWNGYRETHDAFNVWGQGTMVTVSSGTGGSGGTGSGTGGSTDVVMTQSPDSLAVSLGERATINCKSSQNILDNSDNKNFLAWYQQKPGQPPKLLIYWASARESGVPDRFSGSGSGTDFTLTISSLQAEDVALYYCQQYYNTPITFGQGTRLEIKR |  | 0.076 OD 492 nm | binding result [3]: no binding
8 | CR4374 (antibody, also called CR374) heavy: not shown light: QSVLTQPPSVSGAPGQRVTISCTGSSSNIGAGYDVHWYQQLPGTAPKLLIYGNSNRPSGVPDRFSGSKSGTSASLAITGLQAEDEADYYCQSYDSSLSGSVFGGGTKLTVLGQPKAAPSVTLFPPSSEELQANKATLVCLISDFYPGAVTVAWKADSSPVKAGVETTTPSKQSNNKYAASSYLSLTPEQWKSHRSYSCQVTHEGSTVEKTVAPTECS |  |  | binding result [5]: no binding; % of wild-type binding [6]: ~75%
9 | CR5080 (antibody, V domains shown) VH: QVTLKESGPTLVKPTQTLTLTCTFSGFSLSTSGVGVGWIRQPPGKALEWLAVIYWNDDKLYRPSLKSRLTITKDTSKNQVVLTMTKMDPVDTATYYCAHRHRYYDISGYYRLFSDAFDIWGQGTMVTVSS VL: QSVLTQPPSVSGAPGQRVTISCTGSSSNIGAGYDVHWYQQLPGTAPKLLIYGNSNRPSGVPDRFSGSKSGTSASLAITGLQAEDEADYYCQSYDSSLSGWAFGGGTKLTVLG |  |  | binding result [5]: no binding; % of wild-type binding [7]: ~37%
10 | SC04-374 (scFv) scFv: QVTLKESGPTLVKPTQTLTLTCTFSGFSLSTSGVGVGWIRQPPGKALEWLAVIYWNDDKLYRPSLKSRLTITKDTSKNQVVLTMTKMDPVDTATYYCAHRHRYYDISGYYRLFSDAFDIWGQGTMVTVSSGTGGSGGTGSGTGGSTQSVVTQPPSVSGAPGQRVTISCTGSSSNIGAGYDVHWYQQLPGTAPKLLIYGNSNRPSGVPDRFSGSKSGTSASLAITGLQAEDEADYYCQSYDSSLSGSVFGGGTKLTVLG |  | 1.36 OD 492 nm | 
11 | SC04-283 (scFv) scFv: EVQLVQSGAEVKKSGESLKISCKGSGYTFNTYWIGWVRQMPGKGLEWMGIIYPGDSDTIYSPSFQGQVTISADKSISTAYLQWSSLKASDSAMYYCARLTFRRGYSGSDSFLPPGDFDYWGQGTLVTVSSGTGGSGGTGSGTGGSTDIQMTQSPSTLSASVGDRVTITCRASQSISSWLAWYQQKPGKAPNLLIYAASSLQSGVPSRFSGSGSGTDFTLTISSLQPDDSATYYCQQYNTYPLTFGGGTKVEIKR | 1.21 OD 492 nm | 0.074 OD 492 nm | 
12 | SC04-289 (scFv) scFv: QMQLVQSGAEVKKPGESLRISCKGSGYSFTSNWITWVRQMPGKGLEWMGRIDPSDSYTNYSPSFQGHVTISADKSISTAYLQWSSLKASDTAMYYCARDVVGVGASDYYYYMDVWGKGTTVTVSSGTGGSGGTGSGTGGSTEIVLTQSPGTLSLSPGETATLSCRTSQSVSSSYLGWYQQKPGQAPRLLIYGASIRATGIPARFSGSGSGTEFTLTIDSLQSEDFAVYYCQQYNNWPPITFGQGTRLEIKR | 0.759 OD 492 nm | 1.39 OD 492 nm | 
